Each block holds one substance with its values, some of them ahead of it.
How the values were obtained:
[1] = target: human HER3 expressed on cells (HEK293 HER3 O/E cells) (human) (UniProt P21860); assay: flow cytometry on HEK293T HER3 O/E cells, 10 ug antibody as printed, FITC-conjugated anti-Fc secondary
FcRn (human) = FcRn (human) (UniProt P55899); assay: Bio-Layer Interferometry (determined as described in Example 7)
FcgRIIIA (F158) (human) = FcgRIIIA (F158) (human) (UniProt P08637); assay: as above
[2] = target: His-tagged FcγRIIIa (V158) (human) (UniProt P08637); assay: as above
moFcgRIV = assay: as above
moFcRn (mouse) = moFcRn (mouse) (UniProt Q61559); assay: as above
[3] = target: human HER3 expressed on cells (HEK293 HER3 O/E cells) (human) (UniProt P21860); assay: flow cytometry, HEK293 cells overexpressing human HER3, 20 ug/ml antibody, FITC anti-Fc secondary; same antibody on WT HEK293: 1.68
[4] = target: human HER3 expressed on cells (HEK293 HER3 O/E cells) (human) (UniProt P21860); assay: flow cytometry, HEK293 cells overexpressing human HER3, 20 ug/ml antibody, FITC anti-Fc secondary; same antibody on WT HEK293: 0.07

% Parent (HER3 positive) [1]: 0.18%
Substance: hIgG1 Isotype (antibody)

Kd (FcRn (human)): 16.5 nM
Kd (FcgRIIIA (F158) (human)): 5380 nM
Kd [2]: 705 nM
Kd (moFcgRIV): 701 nM
Kd (moFcRn (mouse)): 12.8 nM
Substance: LJM716 (antibody)

% Parent (HE3 positive) [3]: 13.9%
% Parent (HER3 positive) [4]: 0.12%
Substance: Isotype (antibody)

From patent US20250122303A1, “TREATMENT AND PREVENTION OF CANCER USING HER3 ANTIGEN-BINDING MOLECULES” (Hummingbird Bioscience Pte. Ltd., priority 2021, published 2025)
